# Assay: yeast display, Sf9 membrane polyspecificity reagent, FACS + sequencing; frameworks hold sequencing errors
# Outline: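 Galactose-induced (36–48 hours) yeast carrying a synthetic nanobody display library were exposed to 10% biotinylated, detergent-solubilized Sf9 membrane reagent at 4 °C for 1 hour. FACS followed streptavidin microbead enrichment, using low and high (top ~1%) gates for expression (anti-HA) and reagent binding (streptavidin). Colony PCR, MiSeq 2 × 250 sequencing and CDR-length filtering followed. Labels for polyreactivity reflect the gate of origin.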
row,Sequence,polyreactivity (PSR sort gate)
1,QVQLVESGGGLVQAGGSLRLSCAASGFTFWIYAMGWYRQAPGKERELVAAISASGGSTRYADSVKVRFTISRDNAKNTVYLQMNSLKPEDTAVYYCAAYHGLRRGFDYWGPGTQVTVSS,high polyreactivity
2,QVQLVESGGGLVQAGGSLRLSCAASGGIFRIYAMGWYRQAPGKERELVASISRSGGRTYYADSVKGRFTISRDNAKNTVYLQMNSLKPEDTAVYYCAVSLQGYNQVDYYYWGQGTQVTVSS,high polyreactivity
3,QVQLVESGGGLVQAGGSLRLSCAASGSTFPGNAMGGSRQAAGKERELVASISGGGDSTYYADSVKGRFTISRDNAKNTVYLQMNSRKPEDTAVYYCAADYRQEPGYTGYYYWGQGTQVTVSS,low polyreactivity
4,QVQLVESGGGLVQAGGSHRLSCAASGRIFGTYTMGWYRHAPGKERELVASIRFGGSTYYADSVKGRYTISRDNAKNTVYLQMNSLKPEDTAVYYCNRVYGYNRRYGYWGQGTQVTVSS,high polyreactivity
5,QVQLVESWGGLVQAGGSLRLSCAASGSTFAVNAMGCYRQAPGKERELVDAITVSGGSTDYAYSVKRPFTISRDNAKYSVYLQLNRLKPEDTGVYYCADVRMKYYIYGGYDYWGQGTQVNVSS,low polyreactivity
6,QVQLVESGGGLVQAGCSLRISCAASGFTFGKYAMGLYRQAPGNERELVAAITQCGGSTYYADSVKGRFTISRDNAKNTVYLQMNSLKPEYTAVYYCAADRRRQYRPGGYWGQGTQVTVSS,high polyreactivity
7,QVQLVESGGGLVQAGGSLRLSCAASGGTFSRNVMGWYRQAPGTERELVAAISFSGGTTYYADSVKGRFTISRDNAKNTVYLQMISLKPEDTAVYYCAARPVNTVRPFDYWGQGTQVTVSS,high polyreactivity
8,QVQLVESGGGLDQAGGSLRLSCAASGSIFFYYAMVWYRQAPGKERELVADITSGGTTYYADSVKGRFTISRDNAKNTVYLQLNSLKPEDTAVYYCNACLYPGQRPDYTNYSSDYLGQGTQVTVSS,low polyreactivity
9,QVQLVESGGGLVQAGGSLRLSCAASGRIFPLYAMGWYRQAPGKERELDAAISKRDGSTSYADSVKGRFTISRDNAKNTVYLQMNSLKPVDTAVYYCNARNHVQVLFRRDYWGQGTQVTVSS,low polyreactivity
10,QVQLVESGGGLVQAGGSLRLSCAASGRTFRPYAMGWYRQAPGKERELVAAITGGTRTYYADSVKGRFTISRDNAKNTVYLQMNSLKPEDTAVYYCAKGDFFSKHDYLGQGTQVTVSS,low polyreactivity
11,QVQLVESGGGLVQAGGSLRLSCAASGSIFLDNAMGWYRPAPGKERELVAAISRRGGTTYYADSVKGRFTISRDNAKNTVYLQLNSLIPEDTAVYYCAARYPGGKYYSYTYNYWGQGTQVTVSS,high polyreactivity
12,QVQLVESGGGLVQAGGSLRLSCAASGFTFPVYAMGWYREAPGKERELVAAISTSAGSTYYADSVKGRFSISRDNAKNTVYLQLNSLKPEDTAVYYCNADVAGGYGWKSYHGYDYWGQGTQVTVSS,high polyreactivity
13,QVQLVESGGGLVQAGGSLRLSCAASGRTFAPYAMGWYRQAPGKERELVAGITYRTGNTYYADSVKGRFTISRDNAKNTVYLQMNSLKPEDTAVYYCAAYSGYYRPRYNYWGQGTQVTVSS,high polyreactivity
14,QVQLVESGGGLVQAGGSLRLSCAASGRTIGQNAMGWYRQAPGKERELVAAISASGSNTYYADSVKGRFTISRDNAKNTVYLQMNSLKPEDTAVYYCAKQVYRPGQQSRYDYWGQGTQVTVSS,low polyreactivity
15,QVQLVESGGGLVQAGGSLRLSCAASGRTFRGNAMGWYRQAPAKDRELVGAGGSTYYADSVKGRFTISRDNAKNTVYLQMNSLKPEASAVYYCGAALGFSRYSWFGYGYWGQGTQVTVSS,low polyreactivity
16,QVQLVESGGGLVQAGGSLRLSCAASGIIFYPYAMGWYRQAPGKERELVAAISTSGGRTYYADSVKGRFTISRDNAKNTVYLQMNSLKPEDTAVYYCAADNSSGDVNGGGYWGQGTQVTVSS,low polyreactivity

row,Sequence,polyreactivity (PSR sort gate)
1,QVQLVESGGGLVQAGGSLRLSCAASGFIFLSNGMGWYRPAPGKERELVAAITSGGNTNYADSVTGRFTISRDNAKTTVYLQMNSLKPEDTAVYYCAAYWIFITYFGYYSEYAYWGQGTQVTVSS,low polyreactivity
2,QVQLVESGGGLVQAGGSLPLSCAASGITLYLYVMGWYRQAPGKEREFVAAIRWAGGSTYYADSVKGRFTISRDNAKNTVYLHMNSLKPEDTAVYYCNAEVYGYYSARRPGYEYWGQGTQVTVSS,low polyreactivity
3,QVQLVESGGGLVQAGGSLRLSCADSVSTFQPNAMGSYRQAPGKERELVAAISRGGSTKYAYSVKGRITISRDSAKNTVYLQMNSLKPEDTAVYYRAVVFYRHVGYSGYYYWGQGTQVTVSS,low polyreactivity
4,QVQLVESGGGLVQAGGSLRLSCAASGRIFPWYTMGWYRQAPGKESELVATIRGSGGSTHYADSVKGRFTISRDNAKNTVYLQMNSLKPEDTAVYYCATDRPRYRYQYKFDYWGQGTQVTVSS,low polyreactivity
5,QVQLVESGGGLVQAGGSRRIICAASGSIFGYYAMGWYRQAPGKEREFVAAISGRGSSTYYADSVKGRFTISRDNAQNTVYLQMNSLKPEDTAVYYCARVTYKHYGYWGQGTQVTVSS,high polyreactivity
6,QVQRVESGGGLVQAGGSLRLSCAASGSTFSSYAMGWYRQAPWKERELVAAISRSGGSTHYADSLKGRFTISRDNAKNTVYLQMNSLKPEDSAVYYCAADTGRYLDSNYWGQGTQVTVSS,high polyreactivity
7,QVQLVESGGGLVQAGGSLRLSCAASGSTFWYYAMGWYRQAPGKERELDADITYSGVSTYYADSVKGRFTISRDNAKNTVYLQMNSLKPEDTAVYYCYADWGSVNGYAGYYYWGQGTQVTVSS,low polyreactivity
8,QVQLVESGGGLVQAGGSLRLSCAASGRIFRTNAMGWYRQAPGKDRELVAAISRSGGSTYYADSVKGRFTISRDNAKNTVYLQMNSLKPEDTAVYYCATRVGKILTTKYGYWGQGTQVTVSS,high polyreactivity
9,QVQLVESGGGLVQAGGSLRLSCAASGFTFPGDAMGWYRQAPGKERELVAAIDTSGGNTYADSVKGRFTISRDNAKNTVYLQMNSLKPEDTAVYYCAADYYYVYSSFGHYYWGQGTQVTVSS,low polyreactivity
10,QVQLVASGGGLVQAGGSLRLSCAATGSIFYFYAMGWYRPAPWKERELVAAITDCGASTRYADSVKGRFTISRDNAKNTVYLQMNSLKPEDTAVYYCAAVRYHISYREYYWGQGTQVTESS,high polyreactivity
11,QVQLVESGGGLVQAGGSLRLSCAASGFTFYGYAMGWYIQAPGKERELVAAITGSGARTYYADSVKGRFTISRDNAKNTVYLQMNSLKPEDTAVYYCNKVGVTRVGYTYRVREYDYWGQGTQVTVSS,high polyreactivity
12,QVQLVESGGGLVQAGGSLRLSCAASGRIFYVYAMGGYRQAPGKERELVAGITSGGSTTYADSVKGRFTISRDNAKNTVYLQMNSLKPEDTAVYYCAALQRQSYWTYGYWGHGTQVTVSS,high polyreactivity
13,QVQLVESGGCLVQAGGSLRLSCAASGITFVGNAMGCYRQAPVKERELVAGIRGNGGSTYYADSVKGRFTISRDYAKNTVYLQMNSLKPEDTAVYYCAAAAYYADFDYWGQGTQVTVSS,low polyreactivity
14,QVQLVETGGGLVQAGGSLRLSCAASGYILINAMGLYRQAPGKERELVASISWSSGSTYYADSVKGRFTISRDNAKNTVFLQMNSLKPEDTAVYYCAATAWDRWSYRYEYWGQGTQVTVSS,low polyreactivity
15,QVQLVESGGGIVQAGGSLRFSCAASGSTFLYYAMGWYRLAPGKETEFVADISFSGGSTYYADSVKGRFTSSRDNAKNTVYLQMNSLKPEDTGVYNCAARKKEYKAGNYWGQGTQVNVSS,low polyreactivity
16,QVQLVESGGGLVQAGASLRLSCAASGIILGSYAMGWYRQAPAKERELVAGITSGGGKYYADSVKGRFTISRDNAKNTVYLQMNSMKPEYTAVYYCAKLYFHYYRYGYWGQGTQVTVSS,low polyreactivity

# — the nanobody polyreactivity screen of Harvey et al. (2022)
